Here are results for 2 proteins from publication PMC8346688 (Redox Biology, 2021).

The data set “native gel or EMSA” concerns the molecule itself. Nature of the data set: native gel or EMSA.
Data set [1] concerns the molecule itself. Description: non-reducing SDS-PAGE with western blot.

As usually defined, the stoichiometry N is a count of units in the complex or per binding partner.

B1: BirA*-Flag-Prdx2 (natural protein, UniProt P32119 1-198, looked up)
chain: MASGNARIGKPAPDFKATAVVDGAFKEVKLSDYKGKYVVLFFYPLDFTFVCPTEIIAFSNRAEDFRKLGCEVLGVSVDSQFTHLAWINTPRKEGGLGPLNIPLLADVTRRLSEDYGVLKTDEGIAYRGLFIIDGKGVLRQITVNDLPVGRSVDEALRLVQAFQYTDEHGEVCPAGWKPGSDTIKPNVDDSKEYFSKHN
Regarding B1, the “stoichiometry N” value in the data set “native gel or EMSA” was determined as 10; in data set [1], 2.

B2: His-Prdx2 (natural protein, UniProt P32119 1-198, looked up)
chain: MASGNARIGKPAPDFKATAVVDGAFKEVKLSDYKGKYVVLFFYPLDFTFVCPTEIIAFSNRAEDFRKLGCEVLGVSVDSQFTHLAWINTPRKEGGLGPLNIPLLADVTRRLSEDYGVLKTDEGIAYRGLFIIDGKGVLRQITVNDLPVGRSVDEALRLVQAFQYTDEHGEVCPAGWKPGSDTIKPNVDDSKEYFSKHN
Turning to B2, the “stoichiometry N” value in “native gel or EMSA” is 10; in data set [1], 2.
